For experiment [1], the target named is recombinant monomeric cynomolgus monkey HER3 extracellular domain (cynomolgus monkey). As to the kind of experiment: solution equilibrium titration.
The target in experiment [2] is T1, recombinant monomeric human HER3 extracellular domain (human, UniProt P21860). As to the kind of experiment: solution equilibrium titration.
The target of experiment [3] is recombinant mouse HER3 extracellular domain (Mus musculus, UniProt Q61526). Briefly: solution equilibrium titration.
The target of experiment [4] is recombinant monomeric rat HER3 extracellular domain (Rattus norvegicus, UniProt Q62799). As to the kind of experiment: solution equilibrium titration.
Experiment [5] concerns the target Fc-tagged EGFR extracellular domain (Homo sapiens (assumed), UniProt P00533). Briefly: ELISA.
For experiment [6], the target named is Fc-tagged HER2 extracellular domain (Homo sapiens (assumed), UniProt P04626). As to the kind of experiment: ELISA.
Experiment [7] addresses Fc-tagged HER4 extracellular domain (Homo sapiens (assumed), UniProt Q15303). Briefly: ELISA.
In experiment [8] the target is isolated HER3 domains D3-4 (Homo sapiens, UniProt P21860). Briefly: ELISA.
Experiment [9] addresses T1, recombinant monomeric human HER3 …. As to the kind of experiment: ELISA.

B1: LJM716 (antibody, V domains shown)
VH: EVQLLESGGGLVQPGGSLRLSCAASGFTFSSYAMSWVRQAPGKGLEWVSAINSQGKSTYYADSVKGRFTISRDNSKNTLYLQMNSLRAEDTAVYYCARWGDEGFDIWGQGTLVTVSS
VL: DIQMTQSPSSLSASVGDRVTITCRASQGISNWLAWYQQKPGKAPKLLIYGASSLQSGVPSRFSGSGSGTDFTLTISSLQPEDFATYYCQQYSSFPTTFGQGTKVEIK
With B1, the Kd in experiment [1] was 0.043 nM; in experiment [2], 0.032 nM; in experiment [3], 0.037 nM; in experiment [4], 0.057 nM. The binding result in experiment [5], in experiment [6] and in experiment [7] was “no binding” each time.

B2: MOR09825 Fab (Fab, V domains shown)
VH: QVQLVESGGGLVQPGGSLRLSCAASGFTFSSYAMSWVRQAPGKGLEWVSAINSQGKSTYYADSVKGRFTISRDNSKNTLYLQMNSLRAEDTAVYYCARWGDEGFDIWGQGTLVTVSS
VL: DIQMTQSPSSLSASVGDRVTITCRASQGISNWLAWYQQKPGKAPKLLIYGASSLQSGVPSRFSGSGSGTDFTLTISSLQPEDFAVYYCQQYSSFPTTFGQGTKVEIK
With B2, the binding result in experiment [8] is “no binding”; in experiment [9] it was “binds”.

The record behind these values is PMC3924863 (Cancer research, 2013).
